In PMC3918043:

Molecular target: Sp1 (human, UniProt P08047 1-785)
Test: EMSA

Chain of Sp1 (P08047 whole entry): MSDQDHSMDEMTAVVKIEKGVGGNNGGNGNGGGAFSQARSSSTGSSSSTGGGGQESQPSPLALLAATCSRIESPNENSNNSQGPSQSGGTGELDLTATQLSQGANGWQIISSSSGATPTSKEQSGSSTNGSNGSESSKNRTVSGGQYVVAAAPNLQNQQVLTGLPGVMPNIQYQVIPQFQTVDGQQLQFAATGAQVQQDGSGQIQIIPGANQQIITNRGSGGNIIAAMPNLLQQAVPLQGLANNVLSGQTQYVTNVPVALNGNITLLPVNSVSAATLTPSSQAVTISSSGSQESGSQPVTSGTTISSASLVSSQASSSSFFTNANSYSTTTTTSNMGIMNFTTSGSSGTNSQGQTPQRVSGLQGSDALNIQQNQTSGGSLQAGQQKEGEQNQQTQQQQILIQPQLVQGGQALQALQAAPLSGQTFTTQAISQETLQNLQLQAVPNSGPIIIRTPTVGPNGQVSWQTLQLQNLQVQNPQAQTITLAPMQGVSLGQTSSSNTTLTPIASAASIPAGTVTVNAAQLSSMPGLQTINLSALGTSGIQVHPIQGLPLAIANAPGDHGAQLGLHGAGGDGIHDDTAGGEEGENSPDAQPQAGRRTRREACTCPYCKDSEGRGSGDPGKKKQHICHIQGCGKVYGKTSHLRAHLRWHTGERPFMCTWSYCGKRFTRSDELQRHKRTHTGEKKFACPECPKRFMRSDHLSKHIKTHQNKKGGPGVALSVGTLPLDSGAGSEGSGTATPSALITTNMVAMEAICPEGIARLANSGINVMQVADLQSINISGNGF

Binder | binding result
wtANF-Sp-s2 (dsDNA) DNA 1: TGAGGGTCTGGGGGAGGGAGGGTTACTGGAG DNA 2: CTCCAGTAACCCTCCCTCCCCCAGACCCTCA | binds
wtANF-Sp-s4 (dsDNA) DNA 1: GACATCTAGGGTGGGGGTGGGCTGTCTGG DNA 2: CCAGACAGCCCACCCCCACCCTAGATGTC | binds
wtANF-Sp-s3 (dsDNA) DNA 1: TATTGCCTCTCCTCCCGCCCTTATTTGGAG DNA 2: CTCCAAATAAGGGCGGGAGGAGAGGCAATA | binds
wtANF-Sp-s1 (dsDNA) DNA 1: GTGACAGAATGGGGAGGGTTCCAGCTCT DNA 2: AGAGCTGGAACCCTCCCCATTCTGTCAC | binds
